What was measured:
IkBα, P25963 = biological target: T1, IkBα, P25963
T1 chain: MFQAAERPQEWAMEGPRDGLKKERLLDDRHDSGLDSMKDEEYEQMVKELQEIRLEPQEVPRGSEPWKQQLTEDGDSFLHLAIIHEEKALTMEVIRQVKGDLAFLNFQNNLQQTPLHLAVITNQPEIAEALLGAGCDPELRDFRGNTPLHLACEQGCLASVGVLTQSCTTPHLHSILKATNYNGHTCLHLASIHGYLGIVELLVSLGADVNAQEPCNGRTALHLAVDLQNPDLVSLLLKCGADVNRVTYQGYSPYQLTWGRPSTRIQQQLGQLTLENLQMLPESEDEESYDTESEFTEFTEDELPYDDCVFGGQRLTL

Chain of p53, P04637 (P04637 whole entry, looked up): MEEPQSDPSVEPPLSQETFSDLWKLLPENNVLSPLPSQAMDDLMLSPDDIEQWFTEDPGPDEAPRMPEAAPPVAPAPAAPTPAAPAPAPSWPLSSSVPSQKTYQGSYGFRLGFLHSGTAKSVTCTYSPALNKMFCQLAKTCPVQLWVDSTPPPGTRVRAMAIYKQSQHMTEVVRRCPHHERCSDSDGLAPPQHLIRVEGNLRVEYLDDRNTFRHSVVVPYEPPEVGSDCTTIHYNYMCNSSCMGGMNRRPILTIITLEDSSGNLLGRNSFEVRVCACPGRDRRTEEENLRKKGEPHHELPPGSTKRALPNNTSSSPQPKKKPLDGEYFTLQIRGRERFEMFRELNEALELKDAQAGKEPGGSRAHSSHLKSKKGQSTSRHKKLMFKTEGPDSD

B1: purified topors (protein)
chain: MGSQPPLGSPLSREEGEAPPPAPASEGRRRSRRVRLRGSCRHRPSFLGCRELAASAPARPAPASSEIMASAAKEFKMDNFSPKAGTSKLQQTVPADASPDSKCPICLDRFDNVSYLDRCLHKFCFRCVQEWSKNKAECPLCKQPFDSIFHSVRAEDDFKEYVLRPSYNGSFVTPDRRFRYRTTLTRERNASVYSPSGPVNRRTTTPPDSGVLFEGLGISTRPRDVEIPQFMRQIAVRRPTTADERSLRKIQEQDIINFRRTLYRAGARVRNIEDGGRYRDISAEFFRRNPACLHRLVPWLKRELTVLFGAHGSLVNIVQHIIMSNVTRYDLESQAFVSDLRPFLLNRTEHFIHEFISFARSPFNMAAFDQHANYDCPAPSYEEGSHSDSSVITISPDEAETQELDINVATVSQAPWDDETPGPSYSSSEQVHVTMSSLLNTSDSSDEELVTGGATSQIQGVQTNDDLNNDSDDSSDNCVIVGFVKPLAERTPELVELSSDSEDLGSYEKMETVKTQEQEQSYSSGDSDVSRCSSPHSVLGKDEQINKGHCDSSTRIKSKKEEKRSTSLSSPRNLNSSVRGDRVYSPYNHRHRKRGRSRSSDSRSQSRSGHDQKNHRKHHGKKRMKSKRSRSRESSRPRGRRDKKRSRTRDSSWSRRSQTLSLSSESTSRSRSRSSDHGKRRSRSRNRDRYYLRNNYGSRYKWEYTYYSRNKDRDGYESSYRRRTLSRAHYSRQSSSPEFRVQSFSERTNARKKNNHSERKYYYYERHRSRSLSSNRSRTASTGTDRVRNEKPGGKRKYKTRHLEGTNEVAQPSREFASKAKDSHYQKSSSKLDGNYKNESDTFSDSRSSDRETKHKRRKRKTRSLSVEIVYEGKATDTTKHHKKKKKKHKKKHKKHHGDNASRSPVVITIDSDSDKDSEVKEDTECDNSGPQDPLQNEFLAPSLEPFETKDVVTIEAEFGVLDKECDIATLSNNLNNANKTVDNIPPLAASVEQTLDVREESTFVSDLENQPSNIVSLQTEPSRQLPSPRTSLMSVCLGRDCDMS
Question: With B1 as the protein, how does the “sumoylation of IkBα in vitro” value (IkBα, P25963) read?
Answer: The value was “Topors also activates sumoylation of p53, but not IkBα”.

Question: What about the “sumoylation of p53 in vitro” value (p53, P04637) of the same protein?
Answer: Its value is “Topors also activates sumoylation of p53, but not IkBα”.

— patent publication US20080038731
